Measured values taken from PMC9352680, “A comprehensive thermodynamic model for RNA binding by the Saccharomyces cerevisiae Pumilio protein PUF4”.
Where a chain is given by its changes, count along the chain named. Names and notes keep the numbering of the source.

T1: PUF4 RNA-binding domain (Saccharomyces cerevisiae, UniProt P25339 537-888)
T1 sequence: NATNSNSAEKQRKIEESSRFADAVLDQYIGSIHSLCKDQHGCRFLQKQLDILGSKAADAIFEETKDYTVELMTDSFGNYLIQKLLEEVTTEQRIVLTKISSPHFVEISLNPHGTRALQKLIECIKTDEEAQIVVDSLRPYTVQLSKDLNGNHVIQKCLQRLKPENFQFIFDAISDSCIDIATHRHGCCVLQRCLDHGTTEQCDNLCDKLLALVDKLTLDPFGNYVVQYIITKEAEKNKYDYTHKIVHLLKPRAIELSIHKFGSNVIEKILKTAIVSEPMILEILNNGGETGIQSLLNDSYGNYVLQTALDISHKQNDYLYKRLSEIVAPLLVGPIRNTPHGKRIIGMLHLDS

B1: Ie_S2_P4E.1_K4.1_C4.1_H4.1_[+2TCC]_A4.1_F4.1_T4.1 (ssRNA)
RNA: UUUGAUUAAUAUGAUAUCGUUCUUUCUUGUCCUAUAUUAUUCUUUCUCGAUAUCAUAUUAAUCUUU
B2: Ie_S2_P5E.1_K5.1_C5.1_H5.1_[+4TT]_A5.1_F5.1_T5.1 (ssRNA)
RNA: B1 RNA with C31A, C32U, A34U
B3: Ie_S2_P4E.1_K4.1_C4.1_H4.1_[+2CTT]_A4.1_F4.1_T4.1 (ssRNA)
RNA: B1 RNA with U30C, C31U, C32U
B4: Ie_S2_P4E.1_K4.1_C4.1_H4.1_[+3CTT]_A4.1_F4.1_T4.1 (ssRNA)
RNA: B1 RNA with C32U
B5: Ie_S2_P4E.1_K4.1_C4.1_H4.1_[+3CTC]_A4.1_F4.1_T4.1 (ssRNA)
RNA: B1 RNA with C32U, U33C
B6: Ie_S2_P5E.1_K5.1_C5.1_H5.1_A5.1_[+6CT]_F5.1_T5.1 (ssRNA)
RNA: B1 RNA with C31A, C32U, A34C
B7: Ie_S2_P4E.1_K4.1_C4.1_H4.1_[+4CCT]_A4.1_F4.1_T4.1 (ssRNA)
RNA: B1 RNA with C31A, U33C, A34U
B8: Ie_S2_P5E.1_K5.1_C5.1_H5.1_[+4TC]_A5.1_F5.1_T5.1 (ssRNA)
RNA: B1 RNA with C31A, C32U, U33C, A34U
B9: Ie_S2_P4E.1_K4.1_C4.1_H4.1_A4.1_[+5CTC]_F4.1_T4.1 (ssRNA)
RNA: B1 RNA with C31A, C32U, U33C, A34U, U35C
B10: Ie_S2_P5E.1_K5.1_C5.1_H5.1_[+4CT]_A5.1_F5.1_T5.1 (ssRNA)
RNA: B1 RNA with C31A, A34U
B11: Ie_S2_P4E.1_K4.1_C4.1_H4.1_[+4TCC]_A4.1_F4.1_T4.1 (ssRNA)
RNA: B1 RNA with C31A, C32U, U33C, A34C
B12: Ie_S2_P4E.1_K4.1_C4.1_H4.1_[+1CCCT]_A4.1_F4.1_T4.1 (ssRNA)
RNA: UUUGAUUAAUAUGAUAUCGUUCUUUCUUCCCUGUAUAUUAUUCUUUCUCGAUAUCAUAUUAAUCUUU
B13: Ie_S2_P4E.1_K4.1_C4.1_H4.1_[+2TCTC]_A4.1_F4.1_T4.1 (ssRNA)
RNA: B12 RNA with C29G, C30U, G33C
B14: Ie_S2_P5E.1_K5.1_C5.1_H5.1_A5.1_[+5TCC]_F5.1_T5.1 (ssRNA)
RNA: B12 RNA with C29G, C30U, C31A, G33U, U34C, A35C
B15: Ie_S2_P4E.1_K4.1_C4.1_H4.1_[+3CCTC]_A4.1_F4.1_T4.1 (ssRNA)
RNA: B12 RNA with C29G, C30U, U32C, G33U, U34C
B16: Ie_S2_P4E.1_K4.1_C4.1_H4.1_[+3CCCT]_A4.1_F4.1_T4.1 (ssRNA)
RNA: B12 RNA with C29G, C30U, U32C, G33C
B17: Ie_S2_P4E.1_K4.1_C4.1_H4.1_[+2CTCT]_A4.1_F4.1_T4.1 (ssRNA)
RNA: B12 RNA with C29G, C31U, U32C, G33U
B18: Ie_S2_P4E.1_K4.1_C4.1_H4.1_[+2TTCC]_A4.1_F4.1_T4.1 (ssRNA)
RNA: B12 RNA with C29G, C30U, C31U, U32C, G33C
B19: Ie_S2_P4E.1_K4.1_C4.1_H4.1_[+4CCCT]_A4.1_F4.1_T4.1 (ssRNA)
RNA: B12 RNA with C29G, C30U, C31A, U32C, G33C, U34C, A35U
B20: Ie_S2_P4E.1_K4.1_C4.1_H4.1_A4.1_[+5CTCT]_F4.1_T4.1 (ssRNA)
RNA: B12 RNA with C29G, C30U, C31A, G33C, A35C
B21: Ie_S2_P4E.1_K4.1_C4.1_H4.1_[+2CCCT]_A4.1_F4.1_T4.1 (ssRNA)
RNA: B12 RNA with C29G, U32C, G33U
B22: Ie_S2_P4E.1_K4.1_C4.1_H4.1_[+2C]_A4.1_F4.1_T4.1 (ssRNA)
RNA: UUUGAUUAAUAUGAUAUCGUUCUUUCUUGCUAUAUUAUUCUUUCUCGAUAUCAUAUUAAUCUUU
B23: If_S2_P5E.1_K5.1_C5.1_H5.1_A5.1_F5.1_T5.1 (ssRNA)
RNA: B22 RNA with C30U, U31A, A32U
B24: Ie_S2_P4E.1_K4.1_C4.1_H4.1_[+1TCTCT]_A4.1_F4.1_T4.1 (ssRNA)
RNA: UUUGAUUAAUAUGAUAUCGUUCUUUCUUUCUCUGUAUAUUAUUCUUUCUCGAUAUCAUAUUAAUCUUU
B25: Ie_S2_P4E.1_K4.1_C4.1_H4.1_[+3TTCCT]_A4.1_F4.1_T4.1 (ssRNA)
RNA: B24 RNA with U29G, C30U, C32U, U33C, G34C
B26: Ie_S2_P4E.1_K4.1_C4.1_H4.1_[+4CTCTC]_A4.1_F4.1_T4.1 (ssRNA)
RNA: B24 RNA with U29G, C30U, U31A, G34C, A36C
B27: Ie_S2_P4E.1_K4.1_C4.1_H4.1_[+3TCTCT]_A4.1_F4.1_T4.1 (ssRNA)
RNA: B24 RNA with U29G, C30U, G34C
B28: Ie_S2_P4E.1_K4.1_C4.1_H4.1_[+4TCTCT]_A4.1_F4.1_T4.1 (ssRNA)
RNA: B24 RNA with U29G, C30U, U31A, C32U, U33C, G34U, U35C, A36U
B29: Ie_S2_P4E.1_K4.1_C4.1_H4.1_[+1CCTCT]_A4.1_F4.1_T4.1 (ssRNA)
RNA: B24 RNA with U29C
B30: Ie_S2_P4E.1_K4.1_C4.1_H4.1_[+4CCTCT]_A4.1_F4.1_T4.1 (ssRNA)
RNA: B24 RNA with U29G, C30U, U31A, U33C, G34U, U35C, A36U
B31: Ie_S2_P4E.1_K4.1_C4.1_H4.1_[+3CTCTC]_A4.1_F4.1_T4.1 (ssRNA)
RNA: B24 RNA with U29G, C30U, U31C, C32U, U33C, G34U, U35C
B32: Ie_S2_P4E.1_K4.1_C4.1_H4.1_[+3CCCTT]_A4.1_F4.1_T4.1 (ssRNA)
RNA: B24 RNA with U29G, C30U, U31C, U33C, G34U
B33: Ie_S2_P4E.1_K4.1_C4.1_H4.1_[+2TCTCT]_A4.1_F4.1_T4.1 (ssRNA)
RNA: B24 RNA with U29G, C30U, U31C, C32U, U33C, G34U
B34: Ie_S2_P4E.1_K4.1_C4.1_H4.1_[+1CCCTT]_A4.1_F4.1_T4.1 (ssRNA)
RNA: B24 RNA with U29C, U31C, C32U
B35: Ie_S2_P4E.1_K4.1_C4.1_H4.1_[+4CCCTT]_A4.1_F4.1_T4.1 (ssRNA)
RNA: B24 RNA with U29G, C30U, U31A, U33C, G34C, A36U
B36: Ie_S2_P4E.1_K4.1_C4.1_H4.1_[+4TTCCT]_A4.1_F4.1_T4.1 (ssRNA)
RNA: B24 RNA with U29G, C30U, U31A, C32U, G34C, U35C, A36U
B37: Ie_S2_P4E.1_K4.1_C4.1_H4.1_[+2CCTCT]_A4.1_F4.1_T4.1 (ssRNA)
RNA: B24 RNA with U29G, U31C, C32U, U33C, G34U
B38: Ie_S2_P4E.1_K4.1_C4.1_H4.1_[+1TTCCT]_A4.1_F4.1_T4.1 (ssRNA)
RNA: B24 RNA with C30U, U31C
B39: Ie_S2_P4E.1_K4.1_C4.1_H4.1_[+2CTCTC]_A4.1_F4.1_T4.1 (ssRNA)
RNA: B24 RNA with U29G, G34C
B40: Ib_S2_P3E.1_K3.1_C3.1_H3.1_A3.1_[A6C]_F3.1_[A8G]_T3.1 (ssRNA)
RNA: UUUGAUUAAUAUGAUAUCGUUCUUUCUUGUAUCUGUUCUUUCUCGAUAUCAUAUUAAUCUUU
B41: Ic_S2_P3E.1_K3.1_C3.1_H3.1_A3.1_[A6C]_F3.1_[A8C]_T3.1 (ssRNA)
RNA: B40 RNA with G35C
B42: Ib_S2_P3E.1_K3.1_C3.1_H3.1_A3.1_[A6G]_F3.1_[A8C]_T3.1 (ssRNA)
RNA: B40 RNA with C33G, G35C
B43: Ib_S2_P3E.1_K3.1_C3.1_H3.1_A3.1_[A6T]_F3.1_[A8C]_T3.1 (ssRNA)
RNA: B40 RNA with C33U, G35C
B44: Ib_S2_P3E.1_K3.1_C3.1_H3.1_A3.1_[A6T]_F3.1_[A8G]_T3.1 (ssRNA)
RNA: B40 RNA with C33U
B45: Ie_S2_P4E.1_K4.1_C4.1_H4.1_[+2CT]_A4.1_F4.1_T4.1 (ssRNA)
RNA: UUUGAUUAAUAUGAUAUCGUUCUUUCUUGCUUAUAUUAUUCUUUCUCGAUAUCAUAUUAAUCUUU
B46: Ie_S2_P4E.1_K4.1_C4.1_H4.1_A4.1_[+5CC]_F4.1_T4.1 (ssRNA)
RNA: B45 RNA with C30U, U31A, A33C, U34C
B47: Ie_S2_P4E.1_K4.1_C4.1_H4.1_[+2TC]_A4.1_F4.1_T4.1 (ssRNA)
RNA: B45 RNA with C30U, U31C
B48: Ie_S2_P5E.1_K5.1_C5.1_H5.1_A5.1_[+6C]_F5.1_T5.1 (ssRNA)
RNA: B45 RNA with C30U, U31A, A33U, U34C
B49: Ie_S2_P5E.1_K5.1_C5.1_H5.1_[+4T]_A5.1_F5.1_T5.1 (ssRNA)
RNA: B45 RNA with C30U, U31A, A33U
B50: Ie_S2_P4E.1_K4.1_C4.1_H4.1_A4.1_[+5CT]_F4.1_T4.1 (ssRNA)
RNA: B45 RNA with C30U, U31A, A33C
B51: Ie_S2_P4E.1_K4.1_C4.1_H4.1_[+3TT]_A4.1_F4.1_T4.1 (ssRNA)
RNA: B45 RNA with C30U

Molecular target: T1, PUF4 RNA-binding domain
Experiment: Mg; RNA-MaP; 20 mM Na-HEPES pH 7.4, 30 mM KOAc, 0.75 mM MgCl2, 0.1% Tween-20, 5% glycerol, 0.1 mg/mL BSA, 2 mM DTT; 25 C; 0.0125-409.6 nM protein
Settings: tags: N-His6-TEV cleaved; C-SNAP kept, Cy3B-labelled; label: tethered on chip by stalled RNA polymerase

Binder	Kd
B1	10.9 nM
B2	1.57 nM
B3	111 nM
B4	14.4 nM
B5	9.57 nM
B6	1.41 nM
B7	1.13 nM
B8	1.55 nM
B9	26.1 nM
B10	0.922 nM
B11	2.35 nM
B12	0.188 nM
B13	16.8 nM
B14	4.58 nM
B15	106 nM
B16	41.4 nM
B17	47.4 nM
B18	17.9 nM
B19	1.96 nM
B20	4.51 nM
B21	127 nM
B22	81.5 nM
B23	1.92 nM
B24	0.249 nM
B25	17.5 nM
B26	6.5 nM

Binder	Kd
B27	12 nM
B28	7.16 nM
B29	0.166 nM
B30	5.57 nM
B31	135 nM
B32	35.8 nM
B33	26.5 nM
B34	0.12 nM
B35	5.28 nM
B36	8 nM
B37	122 nM
B38	0.215 nM
B39	101 nM
B40	14.7 nM
B41	15.4 nM
B42	90.1 nM
B43	29.3 nM
B44	37.8 nM
B45	198 nM
B46	20.2 nM
B47	27.8 nM
B48	25.6 nM
B49	11.6 nM
B50	5.74 nM
B51	34.1 nM
